Experimental data as given in patent US20130209454A1.

Assays:
Assay in all cases: cell-based or functional assay
[1] = biological target: HIV-1 Env of strain 191955_A11 (HIV-1)
[2] = biological target: HIV-1 Env of strain R2184.c04 (HIV-1)
[3] = biological target: HIV-1 Env of strain TRO.11 (HIV-1)
[4] = biological target: Env of HIV-1 strain HIV-0013095-2.11 (HIV-1)
[5] = biological target: HIV-1 Env of strain Q461.e2 (HIV-1)
[6] = biological target: Env of HIV-1 strain 6952.v1.c20 (HIV-1)
[7] = biological target: HIV-1 Env of strain CAP210.2.00.E8 (HIV-1)
[8] = biological target: HIV-1 Env of strain 1394C9G1(Rev-) (HIV-1)
[9] = biological target: Env of HIV-1 strain C4118.c09 (HIV-1)
[10] = biological target: Env of HIV-1 strain REJO4541.67 (HIV-1)
[11] = biological target: HIV-1 Env of strain ZM109F.PB4 (HIV-1)
[12] = biological target: Env of HIV-1 strain MS208.A1 (HIV-1)
[13] = biological target: HIV-1 Env of strain 6540.v4.c1 (HIV-1)
[14] = biological target: Env of HIV-1 strain 3365.v2.c2 (HIV-1)
[15] = biological target: HIV-1 Env of strain WEAU_d15_410_787 (HIV-1)
[16] = biological target: HIV-1 Env of strain RHPA4259.7 (HIV-1)
[17] = biological target: Env of HIV-1 strain 6811.v7.c18 (HIV-1)
[18] = biological target: Env of HIV-1 strain 3103.v3.c10 (HIV-1)
[19] = biological target: HIV-1 Env of strain 191084 B7-19 (HIV-1)
[20] = biological target: HIV-1 Env of strain A07412M1.vrc12 (HIV-1)
[21] = biological target: Env of HIV-1 strain Ce704809221_1B3 (HIV-1)
[22] = biological target: Env of HIV-1 strain 62357_14_D3_4589 (HIV-1)
[23] = biological target: HIV-1 Env of strain CNE58 (HIV-1)
[24] = biological target: HIV-1 Env of strain 1056_10_TA11_1826 (HIV-1)
[25] = biological target: HIV-1 Env of strain X1632_S2_B10 (HIV-1)
[26] = biological target: Env of HIV-1 strain 6244_13_B5_4576 (HIV-1)
[27] = biological target: HIV-1 Env of strain CNE53 (HIV-1)
[28] = biological target: HIV-1 Env of strain 6480.v4.c25 (HIV-1)
[29] = biological target: HIV-1 Env of strain 6244_13_B5_4576 (HIV-1)
[30] = biological target: HIV-1 Env of strain 231965.c01 (HIV-1)
[31] = biological target: HIV-1 Env of strain ZM233M.PB6 (HIV-1)
[32] = biological target: HIV-1 Env of strain 263-8 (HIV-1)
[33] = biological target: Env of HIV-1 strain R1166.c01 (HIV-1)
[34] = biological target: HIV-1 Env of strain SC422661.8 (HIV-1)
[35] = biological target: Env of HIV-1 strain Du172.17 (HIV-1)
[36] = biological target: Env of HIV-1 strain Ce703010054_2A2 (HIV-1)
[37] = biological target: HIV-1 Env of strain PVO.4 (HIV-1)
[38] = biological target: HIV-1 Env of strain Ce0393_C3 (HIV-1)
[39] = biological target: HIV-1 Env of strain ZM135M.PL10a (HIV-1)
[40] = biological target: HIV-1 Env of strain 231966.c02 (HIV-1)
[41] = biological target: Env of HIV-1 strain T257-31 (HIV-1)
[42] = biological target: Env of HIV-1 strain C2101.c01 (HIV-1)
[43] = biological target: HIV-1 Env of strain Ce1172_H1 (HIV-1)
[44] = biological target: Env of HIV-1 strain 7030102001E5(Rev-) (HIV-1)
[45] = biological target: HIV-1 Env of strain CNE20 (HIV-1)
[46] = biological target: HIV-1 Env of strain 1006_11_C3_1601 (HIV-1)
[47] = biological target: HIV-1 Env of strain C2101.c01 (HIV-1)
[48] = biological target: Env of HIV-1 strain QH0692.42 (HIV-1)
[49] = biological target: HIV-1 Env of strain BJOX028000.10.3 (HIV-1)
[50] = biological target: Env of HIV-1 strain CNE30 (HIV-1)

Sequence of NIH45-46 (antibody) (VH): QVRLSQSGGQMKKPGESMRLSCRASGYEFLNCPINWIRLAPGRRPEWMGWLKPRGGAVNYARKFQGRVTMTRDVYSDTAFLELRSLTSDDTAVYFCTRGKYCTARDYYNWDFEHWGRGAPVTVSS
Sequence of NIH45-46 (antibody) (V domain): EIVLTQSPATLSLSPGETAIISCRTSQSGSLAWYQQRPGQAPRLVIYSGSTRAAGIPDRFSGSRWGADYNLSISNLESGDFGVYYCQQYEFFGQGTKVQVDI

NIH45-46 (antibody)
IC50, pseudovirus neutralization [1]: 0.11 µg/mL | IC50, pseudovirus neutralization [2]: 0.034 µg/mL | IC50, pseudovirus neutralization [3]: 1.61 µg/mL | IC80 [4]: 0.03 µg/mL | IC50, pseudovirus neutralization [5]: 0.076 µg/mL | IC80 [6]: 0.07 µg/mL | IC50, pseudovirus neutralization [7]: > 50 µg/mL | IC50, pseudovirus neutralization [8]: 0.09 µg/mL | IC80 [9]: 0.91 µg/mL | IC80 [10]: 0.035 µg/mL | IC50, pseudovirus neutralization [11]: 0.095 µg/mL | IC80 [12]: 0.6 µg/mL | IC50, pseudovirus neutralization [13]: > 50 µg/mL | IC80 [14]: 0.11 µg/mL | IC50, pseudovirus neutralization [15]: 0.005 µg/mL | IC50, pseudovirus neutralization [16]: 0.017 µg/mL | IC80 [17]: 0.113 µg/mL | IC80 [18]: 6.15 µg/mL | IC50, pseudovirus neutralization [19]: 0.02 µg/mL | IC50, pseudovirus neutralization [20]: 0.03 µg/mL | IC80 [21]: 0.88 µg/mL | IC80 [22]: 0.19 µg/mL | IC50, pseudovirus neutralization [23]: 0.43 µg/mL | IC50, pseudovirus neutralization [24]: 0.094 µg/mL | IC50, pseudovirus neutralization [25]: 0.07 µg/mL | IC80 [26]: 0.26 µg/mL | IC50, pseudovirus neutralization [27]: 0.008 µg/mL | IC50, pseudovirus neutralization [28]: 0.032 µg/mL | IC50, pseudovirus neutralization [29]: 0.07 µg/mL | IC50, pseudovirus neutralization [30]: 0.051 µg/mL | IC50, pseudovirus neutralization [31]: 2.5 µg/mL | IC50, pseudovirus neutralization [32]: 0.05 µg/mL | IC80 [33]: 1.21 µg/mL | IC50, pseudovirus neutralization [34]: 0.06 µg/mL | IC80 [35]: > 50 µg/mL | IC80 [36]: 0.538 µg/mL | IC50, pseudovirus neutralization [37]: 0.12 µg/mL | IC50, pseudovirus neutralization [38]: 0.334 µg/mL | IC50, pseudovirus neutralization [39]: 0.59 µg/mL | IC50, pseudovirus neutralization [40]: 1.64 µg/mL | IC80 [41]: 1.38 µg/mL | IC80 [42]: 31.4 µg/mL | IC50, pseudovirus neutralization [43]: > 50 µg/mL | IC80 [44]: 0.63 µg/mL | IC50, pseudovirus neutralization [45]: 7.83 µg/mL | IC50, pseudovirus neutralization [46]: 0.027 µg/mL | IC50, pseudovirus neutralization [47]: 4.24 µg/mL | IC80 [48]: 1.71 µg/mL | IC50, pseudovirus neutralization [49]: 0.07 µg/mL | IC80 [50]: 1.07 µg/mL
